Target: the molecule itself
Assay: SEC-MALS; Superdex 200 HR10/300 in series with Wyatt Dawn8+ and Optilab T-rEX, 22°C; 100 µl, 100 µg protein; 150 mM NaCl with 50 mM HEPES or 50 mM Tris-Cl, pH 7.4; 0.75 ml/min

B1: Histag-FGF20 (recombinant human fibroblast growth factor 20) (natural protein)
chain: not shown
notes: Fibroblast growth factor 20, human; Made in E. coli, so not glycosylated; source: Escherichia coli, expressed and purified as described [37]
With B1 the “stoichiometry N” value was 2.

From PMC4821243, “Heparin binding preference and structures in the fibroblast growth factor family parallel their evolutionary diversification” (Open Biology, 2016)
